Experiments:
Aβ42 amyloid fibrils = Aβ42 amyloid fibrils (UniProt P05067); experiment: microfluidic diffusional sizing
[1] = biological target: Aβ42 oligomers formed during the in vitro aggregation of Aβ42 (M1–42) (UniProt P05067); experiment: TIRF single-molecule colocalisation imaging

AF647-labeled DesAb-O (antibody)
Kd (Aβ42 amyloid fibrils): 1 µM | stoichiometry N (DesAb-O per Aβ42 monomer) (Aβ42 amyloid fibrils): 0.005 | percentage of coincidence of ThT and AF647-DesAb-O signals [1]: < 45%
